Results reported in the supplement of paper PMC9112550, “Optimization of the antimicrobial peptide Bac7 by deep mutational scanning” (BMC Biology, 2022).

Each sequence was assayed on Escherichia coli TOP10 (assay: shrunken log2 fold change of peptide-encoding DNA abundance (4.5 h post-induction vs induction); higher = less antimicrobial activity (less host growth inhibition)). Conditions: time post-induction: 4.5 h; library: site-saturation at positions 5, 18, 19, 20.
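Note: peptides expressed intracellularly from a pBAD plasmid library in pooled LB shake-flask culture, induced with 0.3% L-arabinose, DNA abundance read by NGS, three biological replicates, DESeq2 with apeglm shrinkage.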

Question: How did the “shrunken log2 fold change” value turn out when RRIRNRPPRLPRPRPRPEARPRP was run?
Answer: -0.0678

Question: Which “shrunken log2 fold change” value does the source give for RRIRRRPPRLPRPRPRPKTHPRP here?
Answer: 0.126

Question: For RRIRGRPPRLPRPRPRPKAGPRP, which “shrunken log2 fold change” value is on record?
Answer: 1.17

Question: How did the “shrunken log2 fold change” value turn out when RRIRCRPPRLPRPRPRPIHRPRP was run?
Answer: -0.0331

Question: With RRIRSRPPRLPRPRPRPFEAPRP as the sequence, how does the “shrunken log2 fold change” value read?
Answer: 0.14

Question: RRIRGRPPRLPRPRPRPMIDPRP was tested. Which “shrunken log2 fold change” value did it give?
Answer: 0.967

Question: Which “shrunken log2 fold change” value does the source give for RRIRERPPRLPRPRPRPCSFPRP here?
Answer: -0.153

Question: For RRIRFRPPRLPRPRPRPTHGPRP, which “shrunken log2 fold change” value is on record?
Answer: -0.0666

Question: Which “shrunken log2 fold change” value does the source give for RRIRFRPPRLPRPRPRPEYGPRP here?
Answer: -0.621

Question: How did the “shrunken log2 fold change” value turn out when RRIRQRPPRLPRPRPRPNIRPRP was run?
Answer: 0.0516

Question: Which “shrunken log2 fold change” value does the source give for RRIRERPPRLPRPRPRPRDRPRP here?
Answer: 0.0224

Question: For RRIRYRPPRLPRPRPRPGFPPRP, which “shrunken log2 fold change” value is on record?
Answer: -6.24e-05

Question: RRIRARPPRLPRPRPRPPCRPRP was tested. Which “shrunken log2 fold change” value did it give?
Answer: 0.517

Question: For RRIRARPPRLPRPRPRPAPFPRP, which “shrunken log2 fold change” value is on record?
Answer: 0.392

Question: With RRIRYRPPRLPRPRPRPDFIPRP as the sequence, how does the “shrunken log2 fold change” value read?
Answer: -0.348

Question: How did the “shrunken log2 fold change” value turn out when RRIRHRPPRLPRPRPRPCFFPRP was run?
Answer: -0.193

Question: For RRIRRRPPRLPRPRPRPQQEPRP, which “shrunken log2 fold change” value is on record?
Answer: -0.0236

Question: Which “shrunken log2 fold change” value does the source give for RRIRYRPPRLPRPRPRPGICPRP here?
Answer: -0.179

Question: RRIRRRPPRLPRPRPRPQTCPRP was tested. Which “shrunken log2 fold change” value did it give?
Answer: 0.247

Question: With RRIRPRPPRLPRPRPRPNSKPRP as the sequence, how does the “shrunken log2 fold change” value read?
Answer: -0.557

Question: With RRIRERPPRLPRPRPRPFRTPRP as the sequence, how does the “shrunken log2 fold change” value read?
Answer: -0.11

Question: Which “shrunken log2 fold change” value does the source give for RRIRSRPPRLPRPRPRPKCQPRP here?
Answer: 0.607

Question: With RRIRSRPPRLPRPRPRPMFGPRP as the sequence, how does the “shrunken log2 fold change” value read?
Answer: -0.325

Question: With RRIRFRPPRLPRPRPRPLTVPRP as the sequence, how does the “shrunken log2 fold change” value read?
Answer: -0.73

Question: How did the “shrunken log2 fold change” value turn out when RRIRGRPPRLPRPRPRPHREPRP was run?
Answer: 0.121

Question: How did the “shrunken log2 fold change” value turn out when RRIRLRPPRLPRPRPRPQNVPRP was run?
Answer: -0.523

Question: RRIRERPPRLPRPRPRPIWYPRP was tested. Which “shrunken log2 fold change” value did it give?
Answer: 0.0381

Question: How did the “shrunken log2 fold change” value turn out when RRIRQRPPRLPRPRPRPQNPPRP was run?
Answer: -0.0336

Question: RRIRSRPPRLPRPRPRPKGHPRP was tested. Which “shrunken log2 fold change” value did it give?
Answer: -0.000921

Question: For RRIRQRPPRLPRPRPRPMTLPRP, which “shrunken log2 fold change” value is on record?
Answer: 0.106

Question: How did the “shrunken log2 fold change” value turn out when RRIRYRPPRLPRPRPRPLWMPRP was run?
Answer: -0.63

Question: RRIRGRPPRLPRPRPRPEQSPRP was tested. Which “shrunken log2 fold change” value did it give?
Answer: 1.05

Question: How did the “shrunken log2 fold change” value turn out when RRIRKRPPRLPRPRPRPEEEPRP was run?
Answer: 0.0391

Question: For RRIRWRPPRLPRPRPRPNIRPRP, which “shrunken log2 fold change” value is on record?
Answer: -0.135

Question: RRIRTRPPRLPRPRPRPHITPRP was tested. Which “shrunken log2 fold change” value did it give?
Answer: -0.625

Question: RRIRDRPPRLPRPRPRPTAWPRP was tested. Which “shrunken log2 fold change” value did it give?
Answer: 1.51

Question: How did the “shrunken log2 fold change” value turn out when RRIRGRPPRLPRPRPRPKGAPRP was run?
Answer: 1.06

Question: How did the “shrunken log2 fold change” value turn out when RRIRKRPPRLPRPRPRPLTMPRP was run?
Answer: 0.185

Question: With RRIRFRPPRLPRPRPRPWWKPRP as the sequence, how does the “shrunken log2 fold change” value read?
Answer: 0.0472

Question: Which “shrunken log2 fold change” value does the source give for RRIRQRPPRLPRPRPRPSQVPRP here?
Answer: -0.23

Question: Which “shrunken log2 fold change” value does the source give for RRIRERPPRLPRPRPRPRLMPRP here?
Answer: -0.103

Question: RRIRDRPPRLPRPRPRPKCYPRP was tested. Which “shrunken log2 fold change” value did it give?
Answer: 0.013

Question: How did the “shrunken log2 fold change” value turn out when RRIRWRPPRLPRPRPRPAKYPRP was run?
Answer: -0.183

Question: RRIRQRPPRLPRPRPRPWIYPRP was tested. Which “shrunken log2 fold change” value did it give?
Answer: 0.0039

Question: Which “shrunken log2 fold change” value does the source give for RRIRTRPPRLPRPRPRPNNHPRP here?
Answer: -0.345

Question: For RRIRYRPPRLPRPRPRPKEQPRP, which “shrunken log2 fold change” value is on record?
Answer: 0.00489

Question: Which “shrunken log2 fold change” value does the source give for RRIRERPPRLPRPRPRPEPHPRP here?
Answer: -0.122

Question: With RRIRARPPRLPRPRPRPVIDPRP as the sequence, how does the “shrunken log2 fold change” value read?
Answer: -0.066

Question: With RRIRIRPPRLPRPRPRPGRYPRP as the sequence, how does the “shrunken log2 fold change” value read?
Answer: -0.0696

Question: For RRIRQRPPRLPRPRPRPQGIPRP, which “shrunken log2 fold change” value is on record?
Answer: -0.602

Question: With RRIRTRPPRLPRPRPRPVAAPRP as the sequence, how does the “shrunken log2 fold change” value read?
Answer: 0.389

Question: With RRIRRRPPRLPRPRPRPARWPRP as the sequence, how does the “shrunken log2 fold change” value read?
Answer: 1.13

Question: How did the “shrunken log2 fold change” value turn out when RRIRGRPPRLPRPRPRPMMIPRP was run?
Answer: -0.0387

Question: How did the “shrunken log2 fold change” value turn out when RRIRVRPPRLPRPRPRPCIAPRP was run?
Answer: -0.298

Question: Which “shrunken log2 fold change” value does the source give for RRIRLRPPRLPRPRPRPDIPPRP here?
Answer: -0.0741

Question: RRIRNRPPRLPRPRPRPCPPPRP was tested. Which “shrunken log2 fold change” value did it give?
Answer: -0.328

Question: For RRIRYRPPRLPRPRPRPPDMPRP, which “shrunken log2 fold change” value is on record?
Answer: -0.625

Question: Which “shrunken log2 fold change” value does the source give for RRIRTRPPRLPRPRPRPWCCPRP here?
Answer: -0.227

Question: How did the “shrunken log2 fold change” value turn out when RRIRGRPPRLPRPRPRPQDEPRP was run?
Answer: 0.111

Question: How did the “shrunken log2 fold change” value turn out when RRIRYRPPRLPRPRPRPSDDPRP was run?
Answer: -0.917

Question: RRIRRRPPRLPRPRPRPIFTPRP was tested. Which “shrunken log2 fold change” value did it give?
Answer: 0.2

Question: For RRIRGRPPRLPRPRPRPFDGPRP, which “shrunken log2 fold change” value is on record?
Answer: 0.366

Question: Which “shrunken log2 fold change” value does the source give for RRIRLRPPRLPRPRPRPQSGPRP here?
Answer: -0.0923

Question: RRIRCRPPRLPRPRPRPAPMPRP was tested. Which “shrunken log2 fold change” value did it give?
Answer: 0.308

Question: With RRIRRRPPRLPRPRPRPEWTPRP as the sequence, how does the “shrunken log2 fold change” value read?
Answer: 0.0215

Question: RRIRCRPPRLPRPRPRPWILPRP was tested. Which “shrunken log2 fold change” value did it give?
Answer: -0.357

Question: How did the “shrunken log2 fold change” value turn out when RRIRDRPPRLPRPRPRPQIQPRP was run?
Answer: -0.221

Question: With RRIRRRPPRLPRPRPRPAETPRP as the sequence, how does the “shrunken log2 fold change” value read?
Answer: -0.0645

Question: With RRIRVRPPRLPRPRPRPFWTPRP as the sequence, how does the “shrunken log2 fold change” value read?
Answer: -0.427

Question: How did the “shrunken log2 fold change” value turn out when RRIRVRPPRLPRPRPRPTAYPRP was run?
Answer: -0.094

Question: Which “shrunken log2 fold change” value does the source give for RRIRLRPPRLPRPRPRPEHWPRP here?
Answer: 0.4

Question: Which “shrunken log2 fold change” value does the source give for RRIRERPPRLPRPRPRPVVEPRP here?
Answer: 0.118

Question: For RRIRYRPPRLPRPRPRPHQFPRP, which “shrunken log2 fold change” value is on record?
Answer: -0.984

Question: Which “shrunken log2 fold change” value does the source give for RRIRNRPPRLPRPRPRPDLRPRP here?
Answer: -0.105

Question: With RRIRTRPPRLPRPRPRPKHQPRP as the sequence, how does the “shrunken log2 fold change” value read?
Answer: 0.219
